# Legend:
# [1] = target: HLA-B*07:02; assay: IEDB peptide-MHC binding, purified MHC/competitive/radioactivity; filed as Kd, often an IC50 or EC50 that approximates it; ≥ and ≤ were set here for values at or beyond the usual limits of such assays
# [2] = target: HLA-B*51:01; assay: as above
# [3] = target: HLA-B*35:01; assay: as above
# [4] = target: HLA-B*53:01; assay: as above
# [5] = target: HLA-B*54:01; assay: as above
# [6] = target: HLA-A*01:01; assay: IEDB peptide-MHC binding, purified MHC/competitive/fluorescence; filed as Kd, often an IC50 or EC50 that approximates it; ≥ and ≤ were set here for values at or beyond the usual limits of such assays; details: source organism: Influenza A virus (A/X-31(H3N2))
# [7] = target: HLA-B*15:01; assay: IEDB peptide-MHC binding, purified MHC/competitive/radioactivity; filed as Kd, often an IC50 or EC50 that approximates it; ≥ and ≤ were set here for values at or beyond the usual limits of such assays
# [8] = target: HLA-B*08:01; assay: as above; details: source organism: Dengue virus 1 Brazil/97-11/1997
# [9] = target: HLA-A*02:06; assay: as above; details: source organism: Dengue virus 1 Brazil/97-11/1997
# [10] = target: HLA-A*30:02; assay: as above; details: source organism: Dengue virus 3 Martinique/1243/1999
# [11] = target: HLA-A*23:01; assay: as above; details: source organism: Dengue virus 2 Peru/IQT2913/1996
# [12] = target: HLA-A*24:02; assay: as above; details: source organism: Dengue virus 2 Peru/IQT2913/1996
# [13] = source organism: SARS coronavirus Tor2
# [14] = source organism: Vaccinia virus WR
# [15] = source organism: Dengue virus 2 Peru/IQT2913/1996
# [16] = source organism: Mammarenavirus guanaritoense
sequence,measurement,setting,value
GPLVRKIFV,Kd,[1]; [13],1380 nM
same,Kd,[2]; [13],≥ 22500 nM
same,Kd,[3]; [13],6070 nM
same,Kd,[4]; [13],11900 nM
same,Kd,[5]; [13],18000 nM
GTFDLGGLY,Kd,[6],486 nM
HPDFCKNRRY,Kd,[1]; [14],≥ 69600 nM
same,Kd,[2]; [14],≥ 69600 nM
same,Kd,[3]; [14],2210 nM
same,Kd,[4]; [14],1140 nM
same,Kd,[5]; [14],≥ 49300 nM
HPRHYATIM,Kd,[1]; source organism: Variola virus,1.56 nM
same,Kd,[2]; source organism: Variola virus,19100 nM
same,Kd,[3]; source organism: Variola virus,153 nM
same,Kd,[4]; source organism: Variola virus,17200 nM
same,Kd,[5]; source organism: Variola virus,18200 nM
HQLWTTLLSL,Kd,[7]; source organism: Dengue virus 1 Brazil/97-11/1997,1.2 nM
same,Kd,[8],1990 nM
same,Kd,[9],91.8 nM
ILALFLAHY,Kd,[7]; source organism: Dengue virus 3 Martinique/1243/1999,53.8 nM
same,Kd,[10],9830 nM
IMLIPTVMAF,Kd,[11],82 nM
same,Kd,[4]; [15],11100 nM
same,Kd,[7]; [15],2.69 nM
same,Kd,[12],1540 nM
ISIKVKNHI,Kd,[7]; [14],5600 nM
LIIYYQLAG,Kd,[7]; [14],1290 nM
LISIRILYY,Kd,[7]; source organism: Vaccinia virus Copenhagen,144 nM
LPLTSLVITY,Kd,[1]; [14],7290 nM
same,Kd,[2]; [14],16500 nM
same,Kd,[3]; [14],8.35 nM
same,Kd,[4]; [14],12.7 nM
same,Kd,[5]; [14],2700 nM
LPNDRVLDI,Kd,[1]; [16],7270 nM
same,Kd,[2]; [16],539 nM
same,Kd,[3]; [16],2690 nM
same,Kd,[4]; [16],258 nM
same,Kd,[5]; [16],13100 nM
